One may read the EC50 (read off the curve) as the concentration needed to bring the measured effect to its halfway point. What is called Kd is the equilibrium constant for the complex coming apart. The low end stands for higher affinity, the high end for lower affinity.

Results on five molecules are retold here after patent US20260098102A1 (NATIONAL UNIVERSITY CORPORATION KOBE UNIVERSITY, published 2026).

One assay concerns the target T1, human SIRPA_V2 protein (human, UniProt P78324 31-504).
T1 construct: Expressed on 293α cells from pcDNA3.2 V5-DEST or pFLAG V5-DEST (FLAG-tagged) vectors; also called human SIRPA Variant 2; ECD variant (full-length, amino acids 1 to 504)
In words: cell-based ELISA on 293α cells expressing FLAG-tagged SIRPA_V2; Abs 490 normalized to FLAG tag [ii]. As to the method: (§1) The 293a cells, described in Example 1)-6, were prepared at 5× 10⁵ cells/mL in a 10% FBS-containing DMEM medium. pFLAG V5-DEST-SIRPA_V1-V10, pFLAG V5-DEST-monkey SIRPA, pFLAG V5-DEST-mouse SIRPA, or pFLAG V5-DEST was introduced into the cells using Lipofectamine LTX (Invitrogen), and 100 μL each was aliquoted to a 96-well plate (Corning Incorporated) and cultured overnight in a 10% FBS-containing DMEM medium at 37° C. under a 5% CO₂ condition. The obtained introduced cells were used for cell-based ELISA in a state that they adhered. After the culture supernatant was removed, 50 μL per well of hD13_HIL3, hD13_HIL4h, hD13_H2L2, hD13_H2L3, or cD13 prepared in Examples 6 and 7 or a control antibody was added to each of various SIRPA genes-introduced cells at a final concentration of 0 to 10,000 ng/ml, and the mixture was allowed to stand at 4° C. for one hour. Thereafter, binding to human SIRPA was evaluated in the same manner as in Example 5-1.

The target in assay [1] is T2, mouse SIRPA variant hmSIRPA_Δ2 (mouse (with human residues), UniProt P97797 35-513).
T2 construct: FLAG-tagged (pFLAG V5-DEST), on 293α cells; also called hmSIRPA_Δ42 [sic]
T2 chain: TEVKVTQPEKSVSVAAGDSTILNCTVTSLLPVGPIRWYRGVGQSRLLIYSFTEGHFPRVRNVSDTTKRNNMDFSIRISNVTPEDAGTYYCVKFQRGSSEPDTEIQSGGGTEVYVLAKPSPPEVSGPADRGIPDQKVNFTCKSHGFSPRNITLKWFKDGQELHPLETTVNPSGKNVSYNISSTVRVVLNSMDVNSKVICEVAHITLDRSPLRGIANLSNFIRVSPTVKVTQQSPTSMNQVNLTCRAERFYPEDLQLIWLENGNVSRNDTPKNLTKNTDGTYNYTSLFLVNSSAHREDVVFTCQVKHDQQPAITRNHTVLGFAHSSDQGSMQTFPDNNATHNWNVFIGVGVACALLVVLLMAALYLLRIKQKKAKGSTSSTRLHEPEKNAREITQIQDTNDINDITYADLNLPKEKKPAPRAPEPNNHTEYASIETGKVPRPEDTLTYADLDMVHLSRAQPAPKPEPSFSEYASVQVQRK
In words: cell-based ELISA on 293α cells expressing FLAG-tagged hmSIRPA_Δ2; Abs 490 normalized to FLAG tag [iii]. As to the method:
After the culture supernatant of 293α cells into which the pFLAG V5-DEST-hmSIRPA_Δ0, Δ1, and Δ2 expression vector prepared in 2)-1-2-2 was introduced and the pFLAG V5-DEST-introduced 293α cells was removed, 50 μL per well of four different D13 humanized anti-human SIRPA antibodies and a chimeric anti-human SIRPA antibody diluted with 5% FBS-containing PBS to a final concentration of 10,000 ng/mL were added to these cells, and the mixture was allowed to stand at 4° C. for one hour. Further, 50 μL per well of an anti-FLAG M2 antibody (SIGMA) diluted with 5% FBS-containing PBS to a final concentration of 10,000 ng/mL was added to a well for detecting expression of each SIRPA construct, and the mixture was allowed to stand at 4° C. for one hour. Thereafter, binding to each construct was evaluated in the same manner as in the evaluation of the binding activity of the human SIRPA. Binding of anti-human SIRPA antibodies to each construct was standardized by expression of the FLAG tag.
(ELISA stands for enzyme-linked immunosorbent assay.)

Another assay concerns the target T3, mouse SIRPA_129 (mouse (129), UniProt P97797 32-513).
T3 construct: FLAG-tagged (pFLAG V5-DEST), on 293α cells; also called 129sv
T3 chain: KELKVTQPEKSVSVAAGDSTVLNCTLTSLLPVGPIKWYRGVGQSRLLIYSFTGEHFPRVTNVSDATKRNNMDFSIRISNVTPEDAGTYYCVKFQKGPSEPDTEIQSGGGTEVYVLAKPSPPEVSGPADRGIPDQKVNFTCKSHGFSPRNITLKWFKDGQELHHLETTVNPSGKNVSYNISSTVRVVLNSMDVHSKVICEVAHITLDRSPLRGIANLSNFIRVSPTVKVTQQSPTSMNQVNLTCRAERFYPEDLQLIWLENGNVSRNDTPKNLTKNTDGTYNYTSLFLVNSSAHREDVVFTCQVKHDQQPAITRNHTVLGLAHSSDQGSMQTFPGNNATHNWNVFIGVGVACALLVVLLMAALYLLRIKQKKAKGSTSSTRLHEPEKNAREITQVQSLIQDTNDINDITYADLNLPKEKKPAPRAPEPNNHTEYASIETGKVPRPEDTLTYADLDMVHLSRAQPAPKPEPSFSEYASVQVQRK
As to the kind of experiment: cell-based ELISA on 293α cells expressing FLAG-tagged mouse SIRPA (129sv); Abs 490 normalized to FLAG tag [iii]. As to the method: as §1

A further assay deals with T4, SIRPA_V1_IgV (human, UniProt P78324 31-149).
T4 construct: Secreted recombinant protein from FreeStyle 293F cells
In words: SPR Biacore T200, antibody captured on anti-human IgG (Fc), SIRPA_V1_IgV as analyte, 1:1 model. As to the method:
The dissociation constants of hD13_HIL3, hD13_HIL4, hD13_H2L2, and hD13_H2L3 prepared in Example 7 against human SIRPA_V1_IgV and monkey SIRPA_ECD prepared in Example 1 were measured by a capture method of capturing a humanized antibody as a ligand to an Anti-Human IgG (Fc) antibody immobilized using Human Antibody Capture Kit (GE Healthcare Bioscience Corp.) and measuring an antigen as an analyte, using Biacore T200 (GE Healthcare Bioscience Corp.). HBS-EP+ (GE Healthcare Bioscience Corp.) was used as a running buffer, and CM5 (GE Healthcare Bioscience Corp.) was used as a sensor chip. Onto the chip, 1 μg/mL humanized antibody was added at 10 μL/min for 60 seconds, and then a serially diluted solution (0.5 to 8 μg/mL) of human SIRPA protein or a serially diluted solution (1 to 16 μg/mL) of monkey SIRPA protein was added as an antigen at a flow rate of 30 μL/min for 120 seconds, and subsequently the dissociation phase for 600 seconds was monitored. As a regenerant, 3 M magnesium chloride (GE Healthcare Bioscience Corp.) was added at a flow rate of 20 μL/min for 30 seconds. For data analysis, a binding rate constant (ka), a dissociation rate constant (kd), and a dissociation constant (KD; KD=kd/ka) were calculated using a 1:1 binding model.
A general note: In SPR one partner is held on a chip, and binding of the other changes the refractive index at the surface.

T4 sequence (P78324 other isoform, or with tags, fused parts or gaps limits assumed): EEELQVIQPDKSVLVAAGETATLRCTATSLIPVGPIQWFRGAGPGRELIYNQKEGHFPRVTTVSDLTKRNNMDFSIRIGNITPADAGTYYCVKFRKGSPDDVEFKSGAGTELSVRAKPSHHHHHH

B1: human chimeric anti-SIRPA antibody cD13 (antibody, human IgG4 S228P, kappa, F234A L235A, V domains shown)
VH: EVQLVESGGGLVQPGRSLKLSCLASGFTFSDYGMIWVRQAPGKGLEWVASISSSSSYIYYADTVKGRFTISRENAKNTLFLHMTSLRSEDTALYYCARRYYGFNYPFDYWGQGVMVTVSS
VL: DTVLTQSPALAVSLGQRVTISCGASKSVRTYMHWYQQKSGQQPKLLIYSASNLEAGVPSRFSGSGSGTDFTLTIDPVEADDIANYYCQQSNEPPYTFGAGTKLELKR
notes: Human IgG4proFALA heavy chain, human kappa light chain; also called cD13 (IgG4pf); human chimeric antibody D13
Regarding B1, the concentration for a half-maximal effect (EC50 (read off the curve)) with human SIRPA_V2 protein was ~30 ng/mL. For the same molecule, the binding result (in assay [1]; in the assay with mouse SIRPA_129) was “no binding (tested: 10000 ng/mL)” throughout.

B2: humanized anti-SIRPA antibody hD13_H1L3 (antibody, human IgG4 S228P, kappa, F234A L235A, V domains shown)
VH: QVQLVESGGGVVQPGRSLRLSCAASGFTFSDYGMIWVRQAPGKGLEWVASISSSSSYIYYADSVKGRFTISRDNSKNRLYLQMNSLRAEDTAVYYCARRYYGFNYPFDYWGQGTMVTVSS
VL: DTQLTQSPSSLSASVGQRVTITCGASKSVRTYMHWYQQKPGKQPKLLIYSASNLEAGVPSRFSGSGSGTDFTLTISSLQPEDFATYYCQQSNEPPYTFGQGTKLEIKR
notes: hH1 heavy chain (IgG4proFALA) and hL3 kappa light chain; also called hD13_HIL3; HIL3 antibody
In the assay with SIRPA_V1_IgV, B2 came in with a Kd of 0.0785 nM. In addition, the concentration giving a half-maximal response (EC50 (read off the curve)) with human SIRPA_V2 protein was ~30 ng/mL. Also, the binding result (in assay [1]; with mouse SIRPA_129) was “no binding (tested: 10000 ng/mL)” each time.

B3: humanized anti-SIRPA antibody hD13_H2L3 (antibody, human IgG4 S228P, kappa, F234A L235A, V domains shown)
VH: EVQLVESGGGVVQPGRSLRLSCAASGFTFSDYGMIWVRQAPGKGLEWVASISSSSSYIYYADSVKGRFTISRDNSKNTLYLQMNSLRAEDTAVYYCARRYYGFNYPFDYWGQGTMVTVSS
VL: DTQLTQSPSSLSASVGQRVTITCGASKSVRTYMHWYQQKPGKQPKLLIYSASNLEAGVPSRFSGSGSGTDFTLTISSLQPEDFATYYCQQSNEPPYTFGQGTKLEIKR
notes: hH2 heavy chain (IgG4proFALA) and hL3 kappa light chain; also called H2L3 antibody
The molecule B3 registered an equilibrium dissociation constant (Kd) with SIRPA_V1_IgV of 0.0859 nM. The “EC50 (read off the curve)” value with human SIRPA_V2 protein is ~30 ng/mL. Besides, the binding result (in assay [1]; with mouse SIRPA_129) was “no binding (tested: 10000 ng/mL)” in each case.

B4: humanized anti-SIRPA antibody hD13_H1L4 (antibody, human IgG4 S228P, kappa, F234A L235A, V domains shown)
VH: QVQLVESGGGVVQPGRSLRLSCAASGFTFSDYGMIWVRQAPGKGLEWVASISSSSSYIYYADSVKGRFTISRDNSKNRLYLQMNSLRAEDTAVYYCARRYYGFNYPFDYWGQGTMVTVSS
VL: DTVLTQSPDSLAVSLGQRATINCGASKSVRTYMHWYQQKPGQQPKLLIYSASNLEAGVPSRFSGSGSGTDFTLTISSLQAEDVAVYYCQQSNEPPYTFGQGTKVEIKR
notes: hH1 heavy chain (IgG4proFALA) and hL4 kappa light chain; also called hD13_HIL4; hD13_HIL4h
The molecule B4 displayed a Kd with SIRPA_V1_IgV of 0.107 nM. Further, in the assay with human SIRPA_V2 protein, the “EC50 (read off the curve)” value is ~30 ng/mL. The binding result (in assay [1]; with mouse SIRPA_129) was “no binding (tested: 10000 ng/mL)” each time.

B5: humanized anti-SIRPA antibody hD13_H2L2 (antibody, human IgG4 S228P, kappa, F234A L235A, V domains shown)
VH: EVQLVESGGGVVQPGRSLRLSCAASGFTFSDYGMIWVRQAPGKGLEWVASISSSSSYIYYADSVKGRFTISRDNSKNTLYLQMNSLRAEDTAVYYCARRYYGFNYPFDYWGQGTMVTVSS
VL: AIQLTQSPSSLSASVGQRVTITCGASKSVRTYMHWYQQKPGKAPKLLIYSASNLEAGVPSRFSGSGSGTDFTLTISSLQPEDFATYYCQQSNEPPYTFGQGTKLEIKR
notes: hH2 heavy chain (IgG4proFALA) and hL2 kappa light chain; also called H2L2 antibody
As to B5, in the assay with SIRPA_V1_IgV, the Kd turned out to be 0.131 nM. In addition, the “EC50 (read off the curve)” value with human SIRPA_V2 protein was ~30 ng/mL. Besides, the binding result (in assay [1]; with mouse SIRPA_129) was “no binding (tested: 10000 ng/mL)” each time.
